Measurements published in patent US20220289856A1 (IGM BIOSCIENCES, published 2022).
Numbering of substitutions follows the chain as printed.

T1: recombinant human CD123 protein (Sino Biological 10518-H08H-50) (human, UniProt P26951 19-305)
T1 construct: also called IL-3 receptor alpha chain; IL-3Rα
T1 sequence (looked up): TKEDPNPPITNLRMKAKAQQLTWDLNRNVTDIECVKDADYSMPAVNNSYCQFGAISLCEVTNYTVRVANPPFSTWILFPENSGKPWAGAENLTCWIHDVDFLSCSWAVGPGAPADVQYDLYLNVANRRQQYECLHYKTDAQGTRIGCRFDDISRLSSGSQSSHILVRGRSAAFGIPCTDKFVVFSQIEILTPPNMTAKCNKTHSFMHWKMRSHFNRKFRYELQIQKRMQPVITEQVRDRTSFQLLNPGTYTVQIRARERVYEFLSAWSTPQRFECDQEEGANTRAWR

B1: IGM #A-b-J*-H1 (bispecific antibody)
chain 1: EVQLVQSGAEVKKPGESLKISCKGSGYSFTDYYMKWARQMPGKGLEWMGDIIPSNGATFYNQKFKGQVTISADKSISTTYLQWSSLKASDTAMYYCARSHLLRASWFAYWGQGTMVTVSS
chain 2: DIVMTQSPDSLAVSLGERATINCESSQSLLNSGNQKNYLTWYQQKPGQPPKPLIYWASTRESGVPDRFSGSGSGTDFTLTISSLQAEDVAVYYCQNDYSYPYTFGQGTKLEIKR
chain 3: not shown
B2: anti-CD123 IgG #1 (antibody, V domains shown)
VH: QVQLQQSGAEVKKPGASVKVSCKASGYTFTDYYMKWVKQSHGKSLEWMGDIIPSNGATFYNQKFKGKATLTVDRSTSTAYMELSSLRSEDTAVYYCARSHLLRASWFAYWGQGTLVTVSS
VL: B1 chain 2 with I2F, E24K, S32T, P52L, S69T, Q106G
notes: Mono-specific IgG version of anti-CD123 #1; also called mono-specific IgG anti-CD123 construct
B3: anti-CD123×CD3 IgM #1 (bispecific antibody)
heavy: QVQLQQSGAEVKKPGASVKVSCKASGYTFTDYYMKWVKQSHGKSLEWMGDIIPSNGATFYNQKFKGKATLTVDRSTSTAYMELSSLRSEDTAVYYCARSHLLRASWFAYWGQGTLVTVSSGSASAPTLFPLVSCENSPSDTSSVAVGCLAQDFLPDSITFSWKYKNNSDISSTRGFPSVLRGGKYAATSQVLLPSKDVMQGTDEHVVCKVQHPNGNKEKNVPLPVIAELPPKVSVFVPPRDGFFGNPRKSKLICQATGFSPRQIQVSWLREGKQVGSGVTTDQVQAEAKESGPTTYKVTSTLTIKESDWLSQSMFTCRVDHRGLTFQQNASSMCVPDQDTAIRVFAIPPSFASIFLTKSTKLTCLVTDLTTYDSVTISWTRQNGEAVKTHTNISESHPNATFSAVGEASICEDDWNSGERFTCTVTHTDLPSPLKQTISRPKGVALHRPDVYLLPPAREQLNLRESATITCLVTGFSPADVFVQWMQRGQPLSPEKYVTSAPMPEPQAPGRYFAHSILTVSEEEWNTGETYTCVVAHEALPNRVTERTVDKSTGKPTLYNVSLVMSDTAGTCY
light: not shown
chain: not shown
notes: also called Anti-CD123 XCD3 IgM #1
B4: IGM #F-b-J*-H1 (bispecific antibody)
VH: QVQLQESGPGLVKPSQSLSLTCSVTDYSITSGYYWNWIRQFPGNKLEWMGYISYDGSNNYNPSLKNRISITRDTSKNQFFLKLSSVTTEDTATYYCSRGEGFYFDSWGQGTTLTVSS
VL: DIMMSQSPSSLAVSVGEKFTMTCKSSQSLFFGSTQKNYLAWYQQKPGQSPKLLIYWASTRESGVPDRFTGSGSGTDFTLAISSVMPEDLAVYYCQQYYNYPWTFGGGTKLEIK
J-chain: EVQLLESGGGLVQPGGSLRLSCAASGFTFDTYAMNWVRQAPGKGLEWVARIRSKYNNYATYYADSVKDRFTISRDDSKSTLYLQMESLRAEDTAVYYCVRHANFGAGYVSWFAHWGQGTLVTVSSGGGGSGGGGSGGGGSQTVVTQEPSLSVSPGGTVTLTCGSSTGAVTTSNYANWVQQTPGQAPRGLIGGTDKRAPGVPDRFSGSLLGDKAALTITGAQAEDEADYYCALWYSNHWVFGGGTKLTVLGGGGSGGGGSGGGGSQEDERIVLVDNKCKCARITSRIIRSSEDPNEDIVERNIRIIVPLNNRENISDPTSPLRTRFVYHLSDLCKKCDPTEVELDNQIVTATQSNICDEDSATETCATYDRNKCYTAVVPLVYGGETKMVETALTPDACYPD
notes: IgM pentamer with a modified J-chain
B5: anti-CD123 IgG #2 (antibody, V domains shown)
VH: QVQLVQSGAEVKKPGASVKVSCKASGYTFTSYWMNWVRQAPGQGLEWMGRIDPYDSETHYNQKFKDRVTMTVDKSTSTAYMELSSLRSEDTAVYYCARGNWDDYWGQGTTVTVSS
VL: EVVLTQSPATLSLSPGERATLSCRASKSISKDLAWYQQKPGQAPRLLIYSGSTLQSGIPARFSGSGSGTDFTLTISSLEPEDFAVYYCQQHNKYPYTFGGGTKVEIKR
notes: Mono-specific IgG version of anti-CD123 #2; also called mono-specific IgG anti-CD123 construct
B6: anti-CD123×CD3 IgG #1 (bispecific antibody)
heavy 1: QVQLQQSGAEVKKPGASVKVSCKASGYTFTDYYMKWVKQSHGKSLEWMGDIIPSNGATFYNQKFKGKATLTVDRSTSTAYMELSSLRSEDTAVYYCARSHLLRASWFAYWGQGTLVTVSSASTKGPSVFPLAPSSKSTSGGTAALGCLVKDYFPEPVTVSWNSGALTSGVHTFPAVLQSSGLYSLSSVVTVPSSSLGTQTYICNVNHKPSDTKVDKKVEPKSCDKTHTCPPCPAPPVAGPSVFLFPPKPKDTLMISRTPEVTCVVVDVKHEDPEVKFNWYVDGVEVHNAKTKPREEEYNSTYRVVSVLTVLHQDWLNGKEYKCKVSNKALPAPIEKTISKAKGQPREPQVYTLPPSREEMTKNQVSLTCDVSGFYPSDIAVEWESDGQPENNYKTTPPVLDSDGSFFLYSKLTVDKSRWEQGDVFSCSVMHEALHNHYTQKSLSLSPGK
light: not shown
heavy 2: not shown
notes: Construct described in WO 2017/210443 A1, made by commercial vendors; also called bispecific anti-CD123×CD3 IgG #1; anti-CD123×anti-CD3 BiTE construct
B7: IGM #B-b-J*-H1 (bispecific antibody)
VH: QIQLVQSGPELKKPGETVKISCKASGYIFTNYGMNWVKQAPGKSFKWMGWINTYTGESTYSADFKGRFAFSLETSASTAYLHINDLKNEDTATYFCARSGGYDPMDYWGQGTSVTVSS
VL: DIVLTQSPASLAVSLGQRATISCRASESVDNYGNTFMHWYQQKPGQPPKLLIYRASNLESGIPARFSGSGSRTDFTLTINPVEADDVATYYCQQSNEDPPTFGAGTKLELK
J-chain: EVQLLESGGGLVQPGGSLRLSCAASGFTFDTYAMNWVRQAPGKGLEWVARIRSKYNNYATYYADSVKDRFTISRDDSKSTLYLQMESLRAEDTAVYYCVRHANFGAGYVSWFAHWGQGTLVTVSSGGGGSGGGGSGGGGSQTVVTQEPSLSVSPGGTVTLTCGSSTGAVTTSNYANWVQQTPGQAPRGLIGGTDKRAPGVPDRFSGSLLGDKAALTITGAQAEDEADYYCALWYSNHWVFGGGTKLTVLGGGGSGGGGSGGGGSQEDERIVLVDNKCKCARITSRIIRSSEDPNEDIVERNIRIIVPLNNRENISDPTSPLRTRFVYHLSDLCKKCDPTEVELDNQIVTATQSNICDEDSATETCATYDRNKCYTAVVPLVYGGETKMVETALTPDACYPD
B8: anti-CD123×CD3 IgM #2 (bispecific antibody)
heavy: QVQLVQSGAEVKKPGASVKVSCKASGYTFTSYWMNWVRQAPGQGLEWMGRIDPYDSETHYNQKFKDRVTMTVDKSTSTAYMELSSLRSEDTAVYYCARGNWDDYWGQGTTVTVSSGSASAPTLFPLVSCENSPSDTSSVAVGCLAQDFLPDSITFSWKYKNNSDISSTRGFPSVLRGGKYAATSQVLLPSKDVMQGTDEHVVCKVQHPNGNKEKNVPLPVIAELPPKVSVFVPPRDGFFGNPRKSKLICQATGFSPRQIQVSWLREGKQVGSGVTTDQVQAEAKESGPTTYKVTSTLTIKESDWLSQSMFTCRVDHRGLTFQQNASSMCVPDQDTAIRVFAIPPSFASIFLTKSTKLTCLVTDLTTYDSVTISWTRQNGEAVKTHTNISESHPNATFSAVGEASICEDDWNSGERFTCTVTHTDLPSPLKQTISRPKGVALHRPDVYLLPPAREQLNLRESATITCLVTGFSPADVFVQWMQRGQPLSPEKYVTSAPMPEPQAPGRYFAHSILTVSEEEWNTGETYTCVVAHEALPNRVTERTVDKSTGKPTLYNVSLVMSDTAGTCY
light: EVVLTQSPATLSLSPGERATLSCRASKSISKDLAWYQQKPGQAPRLLIYSGSTLQSGIPARFSGSGSGTDFTLTISSLEPEDFAVYYCQQHNKYPYTFGGGTKVEIKRTVAAPSVFIFPPSDEQLKSGTASVVCLLNNFYPREAKVQWKVDNALQSGNSQESVTEQDSKDSTYSLSSTLTLSKADYEKHKVYACEVTHQGLSSPVTKSFNRGEC
chain: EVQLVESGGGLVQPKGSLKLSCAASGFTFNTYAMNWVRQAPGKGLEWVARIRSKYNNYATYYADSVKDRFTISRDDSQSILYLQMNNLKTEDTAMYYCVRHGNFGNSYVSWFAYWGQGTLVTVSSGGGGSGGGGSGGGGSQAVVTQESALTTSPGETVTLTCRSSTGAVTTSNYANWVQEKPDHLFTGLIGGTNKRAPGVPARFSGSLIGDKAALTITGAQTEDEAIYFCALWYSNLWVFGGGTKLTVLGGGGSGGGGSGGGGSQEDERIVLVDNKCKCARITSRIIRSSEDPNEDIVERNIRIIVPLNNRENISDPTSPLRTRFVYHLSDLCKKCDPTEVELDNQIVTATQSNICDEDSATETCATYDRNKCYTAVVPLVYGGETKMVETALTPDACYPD
B9: IGM #C-b-J*-H1 (bispecific antibody)
VH: QVQLQQPGAELVRPGASVKLSCKASGYTFTSYWMNWVKQRPDQGLEWIGRIDPYDSETHYNQKFKDKAILTVDKSSSTAYMQLSSLTSEDSAVYYCARGNWDDYWGQGTTLTVSS
VL: DVQITQSPSYLAASPGETITINCRASKSISKDLAWYQEKPGKTNKLLIYSGSTLQSGIPSRFSGSGSGTDFTLTISSLEPEDFAMYYCQQHNKYPYTFGGGTKLEIK
J-chain: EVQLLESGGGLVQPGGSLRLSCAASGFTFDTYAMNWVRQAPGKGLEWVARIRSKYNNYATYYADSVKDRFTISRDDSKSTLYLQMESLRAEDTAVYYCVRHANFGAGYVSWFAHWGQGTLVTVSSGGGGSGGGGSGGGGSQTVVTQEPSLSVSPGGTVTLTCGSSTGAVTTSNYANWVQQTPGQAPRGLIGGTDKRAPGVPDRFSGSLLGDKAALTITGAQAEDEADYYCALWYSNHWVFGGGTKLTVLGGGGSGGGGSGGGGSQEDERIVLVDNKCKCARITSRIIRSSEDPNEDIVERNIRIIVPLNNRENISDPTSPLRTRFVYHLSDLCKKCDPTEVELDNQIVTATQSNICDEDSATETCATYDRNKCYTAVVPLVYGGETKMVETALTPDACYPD

What was measured:
[1] = target: T1, recombinant human CD123 protein (Sino …); test: ELISA on plate-coated recombinant human CD123, as in Example 2
Experimental: (§1) 96-well white polystyrene ELISA plates (Pierce 15042) were coated with 100 μL per well of 0.5 μg/mL recombinant human CD123 protein (Sino Biological 10518-H08H-50) or recombinant human CD3ε protein (Acro Biosystems, CDE-H5256-100) overnight at 4° C. Plates were then washed 5 times with 0.05% PBS-Tween and blocked with 2% BSA-PBS. After blocking, 100 μL of serial dilutions of CD123 IgM or IgG, standards, and controls were added to the wells and incubated at room temperature for 2 hours. The plates were then washed 10 times and incubated with HRP conjugated mouse anti-human kappa (Southern Biotech, 9230-05. 1:6000 diluted in 2% BSA-PBS) for 30 min. After 10 final washes using 0.05% PBS-Tween, the plates were read out using SuperSignal chemiluminescent substrate (ThermoFisher, 37070). Luminescent data were collected on an EnVision plate reader (Perkin-Elmer) and analyzed with GraphPad Prism using a 4-parameter logistic model.

[2] = target: T1, recombinant human CD123 protein (Sino …); test: ELISA on plate-coated recombinant human CD123
Experimental: as §1

[3] = target: recombinant human CD3ε protein (Acro Biosystems, CDE-H5256-100) (human, UniProt P07766 23-126); test: ELISA on plate-coated recombinant human CD3ε
Sequence of recombinant human CD3ε protein (Acro Biosystems, CDE-H5256-100) (P07766 23-126 limits assumed): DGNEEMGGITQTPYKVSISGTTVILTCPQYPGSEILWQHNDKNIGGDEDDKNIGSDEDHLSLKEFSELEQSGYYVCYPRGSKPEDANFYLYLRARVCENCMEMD
Experimental: as §1

[4] = target: T2, CD123 on AML cells (Kg-1a, MOLM-13, MV4-11, THP-1, PL21) (UniProt P26951 19-378); test: cell-based or functional assay
[5] = target: T2, CD123 on AML cells (Kg-1a, MOLM-13, …); test: cell-based or functional assay; remark: listed apart in the source

Row | Binder | EC50 [1] | binding result [2] | binding result [3] | T Cell-Directed Killing EC50 (pM), MV411, Strong Donor T cells [5] | T Cell-Directed Killing EC50 (pM), MV411, Weak Donor T cells [5] | T Cell-Directed Killing EC50 (pM), PL21, Strong Donor T cells [5] | T Cell-Directed Killing EC50 (pM), THP-1, Strong Donor T cells [5] | other results
1 | B1 | 0.198 nM | – | – | – | – | – | – | –
2 | B2 | – | binds | no binding | – | – | – | – | –
3 | B3 | – | – | binds | – | – | – | – | T cell-directed killing of MV4-11 cells (luciferase), EC50 [4]: 13.6 pM; T cell-directed killing of THP-1 cells (luciferase), EC50 [4]: 11.1 pM
4 | B4 | 0.53 nM | – | – | 273 pM | 1080 pM | 102 pM | 66.3 pM | –
5 | B5 | – | binds | no binding | – | – | – | – | –
6 | B6 | – | – | binds | – | – | – | – | –
7 | B7 | 0.298 nM | – | – | 41.2 pM | 35.3 pM | 4.9 pM | 12.9 pM | T Cell-Directed Killing EC50 (pM), PL21, Weak Donor T cells [5]: 227 pM; T Cell-Directed Killing EC50 (pM), THP-1, Weak Donor T cells [5]: 46.2 pM
8 | B8 | – | binds | binds | – | – | – | – | –
9 | B9 | 0.354 nM | – | – | 0.1 pM | 528 pM | 147 pM | 104 pM | T Cell-Directed Killing EC50 (pM), THP-1, Weak Donor T cells [5]: 990 pM
